Assay results reported in patent US20040081659A1, “Conjugates useful in the treatment of prostate cancer” (Merck & Co., Inc., priority 1997, published 2004).
Where “and” joins values, the source holds several entries; their conditions need not be identical. Equal entries are not always repeated. Where two headings read alike, the source gives them in different places.

Assays:
[1] = biological target: T1, enzymatically active free PSA (York PSA) (Homo sapiens, UniProt P07288); experiment: Recognition/cleavage of oligopeptide-vinca drug conjugates by free PSA (HPLC); type: biochemical; conditions: for Time to 50% Substrate Cleavage by York PSA: conjugate to PSA molar ratio 100 to 1, pH7.4 buffer
T1 construct: 50% cleavage of the noted. oligopeptide-cytotoxic agent conjugates with enzymatically active free PSA were then calculated; purchased York
Experimental: The conjugates prepared as described in Example 3 were individually dissolved in PSA digestion buffer (50 mM tris(hydroxymethyl)-aminomethane pH7.4, 140 mM NaCl) and the solution added to PSA at a molar ration of 100 to 1. Alternatively, the PSA digestion buffer utilized is 50 mM tris(hydroxymethyl)-aminomethane pH7.4, 140 mM NaCl. The reaction was quenched after various reaction times by the addition of trifluoroacetic acid (TFA) to a final 1% (volume/volume). Alternatively the reaction is quenched with 10 mM ZnCl2. The quenched reaction was analyzed by HPLC on a reversed-phase C18 column using an aqueous 0.1 % TFA/acetonitrile gradient. The amount of time (in minutes) required for 50% cleavage of the noted. oligopeptide-cytotoxic agent conjugates with enzymatically active free PSA were then calculated.

[2] = biological target: T1, enzymatically active free PSA (York PSA); experiment: as above; type: biochemical
[3] = system: LNCap prostate tumor cells; experiment: In vitro cytotoxicity, Alamar Blue assay, LNCaP cells; type: cell-based; conditions: read-out: LNCaP Cell Kill in 72 HRS EC 50
Experimental: (§1) Specifically, cell cultures of LNCap prostate tumor cells, Colo320DM cells (designated C320) or T47D cells in 96 well plates was diluted with medium containing various concentrations of a given conjugate (final plate well volume of 200 μl). […] The cells were incubated for 3 days at 37° C., 20 μl of Alamar Blue is added to the assay well. The cells were further incubated and the assay plates were read on a EL-310 ELISA reader at the dual wavelengths of 570 and 600 nm. at 4 and 7 hours after addition of Alamar Blue. Relative percentage viability at the various concentration of conjugate tested was then calculated versus control (no conjugate) cultures and an EC50 was determined. Unless otherwise indicated, the acetate salt of the conjugate was tested.

Colo320DM cells = experiment: In vitro cytotoxicity, Alamar Blue assay, Colo320DM control cells (do not express free PSA); type: cell-based; conditions: 72 HRS, read-out: Colo320DM cell kill EC 50 (in parentheses)
Experimental: as §1

T1 sequence (P07288 25-261): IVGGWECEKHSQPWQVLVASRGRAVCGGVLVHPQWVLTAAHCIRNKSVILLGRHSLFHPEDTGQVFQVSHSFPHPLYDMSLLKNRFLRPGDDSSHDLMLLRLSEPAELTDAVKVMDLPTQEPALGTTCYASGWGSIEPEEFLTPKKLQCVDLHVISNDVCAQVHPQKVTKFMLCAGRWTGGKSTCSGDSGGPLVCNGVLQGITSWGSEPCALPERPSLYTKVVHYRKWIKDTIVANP

| Compound | Time to 50% Substrate Cleavage by York PSA [1] | Substrate cleavage by York PSA at 1 HOUR [1] | further results |
| --- | --- | --- | --- |
| 4-O-(Ac-3-Pal-SSChgQ(dS)-P)-dAc-VIN (XSSXQXP; D-residues; non-natural residues) |  |  | Substrate cleavage by York PSA at 3 HOURS ([1]; 3 HOURS): 3 HOURS = 0% |
| 4-O-(Ac-SSChgQ-SS-P)-dAc-VIN (XSXQSSP; non-natural residues) | 15 min |  |  |
| 4-O-[(2-OH)Ac-SChgQSS-Sar]-dAc-VIN (XXQSSX; N-methyl; non-natural residues) |  | 1 HOUR = 4% |  |
| 4-O-[Ac-4-trans-L-HypSSChgQ-(dS)SP]-dAc-VIN |  |  | Time to 50% Substrate Cleavage by York PSA, 10 X ENZ [2]: 6 HOURS (10 X |
| 4-O-[Ac-SChgQS-Aib-P]-dAc-VIN |  | 1 HOUR = 8% |  |
| 4-O-[Ac-SChgQSS-Aib-P]-dAc-VIN | 15 min and 23 min |  |  |
| 4-O-[Ac-SChgQSS-Pip]-dAc-VIN | 15 min |  |  |
| 4-O-[Ac-SSChgQ-S(dS)-4-trans-L-Hyp]-dAc-VIN |  | 1 HOUR = 14% |  |
| CC[C@]1(O)C[C@H]2CN(CCc3c([nH]c4ccccc34)[C@@](C(=O)OC)(c3cc4c(cc3OC)N(C)[C@H]3[C@@](O)(C(=O)OC)[C@H](OC(=O)CNC)[C@]5(CC)C=CCN6CC[C@]43[C@@H]65)C2)C1 [4-O-sarcosyl-(dAc)-VIN] |  |  | EC50 ([3]; 72 HRS): 1300 nM; EC50 (Colo320DM cells): 1800 nM |
| CCC1(O)CC2CN(CCc3c([nH]c4ccccc34)C(C(=O)OC)(c3cc4c(cc3OC)N(C)C3C(O)(C(=O)OC)C(OC(=O)C5CC(O)CN5)C5(CC)C=CCN6CCC43C65)C2)C1 [(4-O-4-trans-L-Hyp)-dAc-VIN] |  |  | EC50 ([3]; 72 HRS): 600 nM; EC50 (Colo320DM cells): 1100 nM |
| CC[C@]1(O)C[C@@H]2CN(CCc3c([nH]c4ccccc34)[C@@](C(=O)OC)(c3cc4c(cc3OC)N(C)[C@H]3[C@@](O)(C(=O)OC)[C@H](OC(C)=O)[C@]5(CC)C=CCN6CC[C@]43[C@@H]65)C2)C1 [VINBLASTINE, reference compound] |  |  | EC50 ([3]; Homo sapiens, LNCaP, 72 h): 500 nM; EC50 (Colo320DM cells; Homo sapiens, COLO 320DM): 500 nM |
| (4-O)-Ac-(4-trans-L-Hyp)SSChgQ-SL-(dAc)-VIN (XSSXQSL; non-natural residues) | 35 min |  |  |
| Ac-AbuSSChgQ-(dS)-(4-O-P)-dAc-VIN |  | 1 HOUR = 0% |  |
